These results are taken from patent publication US20250376505A1 (UNIVERSITE DE STRASBOURG, published 2025).

In assay [1] the target is T1, VP1 pentamer of BKV genotype II (BK virus genotype II, UniProt P14996 30-300).
T1 construct: also called VP1 pentamers of genotype II; GII; not shown: N-terminal His-tag of pESPRIT002; C-terminal biotin acceptor peptide (BAP) of pESPRIT002
The experiment in a line: ELISA, coated VP1 pentamer. A general note: An ELISA detects its analyte on a solid surface through an enzyme-linked reagent.

Assay [2] has as its target T2, VP1 pentamer of BKV genotype IV (BK virus genotype IV, UniProt P14996 30-300).
T2 construct: also called VP1 pentamers of genotype IV; GIV; not shown: N-terminal His-tag of pESPRIT002; C-terminal biotin acceptor peptide (BAP) of pESPRIT002
The experiment in a line: ELISA, coated VP1 pentamer.

Assay [3] concerns the target VP1 capsid protein on BKV genotype Ia pseudovirions (BK-D; JF894228) (BK virus genotype Ia (BK-D)). The experiment in a line: cell-based or functional assay.
Assay [4] addresses VP1 capsid protein on BKV genotype IVc2 pseudovirions (A-66H; AB369093) (BK virus genotype IVc2 (A-66H)). The experiment in a line: cell-based or functional assay.
For assay [5], the target named is VP1 capsid protein on BKV genotype II pseudovirions (GBR-12; AB263920) (BK virus genotype II (GBR-12)). The experiment in a line: cell-based or functional assay.

Usually EC50 stands for the midpoint of the concentration-response curve. A higher EC50 goes with a need for much substance.

B1: B5P4 (antibody, V domains shown)
VH: QVQLVQSGAEVKKPGSSVKVSCKASGGRFSRYGSSWVRQAPGQGLEWMGGIIPLLGTANYAQKFQDRVSITADESTSTVYMHLSSLRSEDTAVYYCATARREYDRPGAEYFIQWGQGTLVTVSS
VL: EIVMTQSPATLSVSPGERATLSCRASQSVSTNLAWYQQKPGQAPRLLIYDAFLRATGIPARFSGSGSGTEFTLTISSLQPEDFAVYYCQQYNYWPPLTFGGGTKVEIK
Consider B1, for which the binding result in assay [1] and in assay [2] was “no binding (tested: 50 µg/mL (starting concentration))” each time.

B2: D9P6 (antibody, V domains shown)
VH: QLQLQESGPGLVKPSETLSLTCTVSGTYISTNSYYWGWIRQPPGKGLEWIGSIEYGGSTYYNPSLRSRLTISVDTSKNHFSLRLSSVTAADTAMYYCASANSHYYDSGGYCAPSALDIWGQGTMVTVSS
VL: EIVMTQSPATLSVSPGERVTLSCRASQSASSHLAWYQHKRGQAPRLLIYAASSRATGIPARFSGRGSGTEFTLTISSLQSEDFAVYYCQQYNNWPPGYSFGQGTKLEIK
Consider B2, for which the “Neutralization PSV IC50” value in assay [3], in assay [4] and in assay [5] was > 50 mg/L each time. Further, the results for the concentration for a half-maximal effect (EC50) in assay [1] and in assay [2] were 9 mg/L and 4 mg/L, respectively.

B3: D11P7 (antibody, V domains shown)
VH: EVQLVESGGGLVQPGGSLRLSCAASGFTFRSYTMDWVRQAPGKGLEWVSCISGSSNHKYYADSVRGRFTISRDNAKNSLFLQMNSLRAEDSAVYYCAREDDILTPLYGMDVWGPGTTVTVSS
VL: QSALTQPASVSGSPGQSITISCTGTSSDVGAYNYVSWYRLRPGKDPHLIIYDVSHRPAGVSNRFSGSKSGNTASLTISGLQAEDEDEYYCCSYAHRGTPLFGGGTKLTVL
In the case of B3, the binding result in assay [1] and in assay [2] was “no binding (tested: 50 µg/mL (starting concentration))” in each case.

B4: E10P2 (antibody, V domains shown)
VH: EVQLLESGGALVQPGGSLRLSCAASGFTFRSYAMNWVRQAPGKGLEWVSSLSSSGTTTYYADSVKGRFTISRDNSKNTMYLQMDSLRGEDTAVYYCAKDRNAQWLGSEPLDPWGQGTLVTVSS
VL: EIVLTQSPGTLSLSPGERATLSCRASQSVSSSYLAWYQQKPGQAPRLLIYGASSRATGIPDRFSGSGSGTDFTLTISSLQPDDFAIYYCQQAYTFPWTFGQGTKLEIK
For the molecule B4, the binding result in assay [1] and in assay [2] was “no binding (tested: 50 µg/mL (starting concentration))” throughout.

B5: C9P1 (antibody, V domains shown)
VH: EVQLLESGGGLVQPGGSLRLSCVTSGFTFSSYSMTWVRQAPGKGLEWVSYISSSSRTISYADSVQGRFTISRDNAKNVLYLQMNSLRAEDTAVYYCARQAVAHFDYWGQGTLVTVSS
VL: EIVLTQSPGTLSLSPGERATLSCRASQRVSSNYLAWYQQKPGQAPRLLIYGASSRATGIPDRFSGSGSGTDFTLTISRLEPEDFAVYYCQQYGTSPRSFGQGTKVEIK
In the case of B5, the binding result in assay [1] and in assay [2] was “no binding (tested: 50 µg/mL (starting concentration))” throughout.
